Results published in patent US12006343B2, “C4BP-based compounds for treating immunological diseases” (FUNDACIO INSTITUT D'INVESTIGACIO BIOMEDICA DE BELLVITGE …, priority 2017, dated 2024).
Entries after “also recorded” stand apart in the source; their conditions may differ.

What was measured:
[1] = mouse, in vivo, cited from earlier work
[2] = test system: human monocyte-derived DCs; test: Immunomodulatory activity over human monocyte-derived DCs: CD83/CD86 surface expression by flow cytometry after LPS maturation; assay type: cell-based; settings: FIG. 4
Description: In Vitro Functional Assessment of the Immunomodulatory Activity of Full-Length C4BP(β−) and C4BP(β−) Variants Over DCs
The inventors used for the in vitro study both C4BP(β+) (WT) and recombinant C4BP(β−) isoforms, and the above-referred mutants or variants: Mutant 1 and Mutant 2. C4BP(β+) isoforms refer to the major C4BP α7β1 plus the minor C4BP α6β1 isoforms (both in complex with ProS) purified from pooled human plasma.
RPMI 1640 was supplemented with 100 μg/ml of streptomycin, 100 IU/ml of penicillin, 2 mM L-glutamine (all from Invitrogen, Carlsbad, CA) and 10% heat-inactivated fetal bovine serum (Linus, Cultek, Spain) (complete medium), unless otherwise stated.
Peripheral blood mononuclear cells (PBMCs) were obtained from buffy coat preparations collected from healthy donors from the Blood and Tissue Bank (Barcelona, Spain) after Ficoll-Paque™ density centrifugation (GE Healthcare Bio-Sciences AB; Uppsala, Sweden). For surface phenotype determination, monocytes were plated at 1×10^6 cells/ml in 60 mm culture plates (Corning, Spain), in RPMI 1640 medium without serum, and allowed to adhere for 2 h at 37° C. in 5% CO2. The non-adherent cells were removed by washing in PBS.
Monocyte-derived DCs were generated supplementing the monocyte cultures with complete RPMI 1640 medium plus GM-CSF (800 UI/ml) and IL-4 (500 UI/ml) (both from Gentaur, Kampenhout, Belgium) at day 0 and day 3 of culture. For DC maturation, at day 5 iDCs were further stimulated for 48 h with 5 μg/ml LPS (Escherichia coli 055.B5, Sigma L2880, Copenhagen, Denmark).
Staining using the fluorescent dye 7-amino-actinomycin D (7-AAD) (BD Pharmigen) and flow cytometry analysis was employed to assess the viability status of C4BP-treated and untreated DCs.
Cell surface phenotypes were analyzed by flow cytometry using the following mAbs: FITC-conjugated anti-CD83 (HB15a) and PE-conjugated anti-CD86 (HA5.2B7) (all from Beckman-Coulter). The respective isotype controls FITC-conjugated anti-IgG2b (H2) and PE-conjugated anti-IgG2b (H2), were from the same commercial sources. After washing with PBS, cells were subsequently stained with 3 μl mAb/10^5 cells in 100 μl of FACS buffer (PBS containing 1% BSA and 0.1% sodium azide) for 20 min at room temperature. To exclude dead cells and debris, DCs were gated according to forward scatter (FSC) and side scatter (SSC) parameters. Stained cells were analyzed using a FACSCalibur (Becton Dickinson, Franklin Lakes, NJ) equipped with CellQuestPro software (Becton Dickinson).
In Vitro Functional Assessment of C4BP(β−) Immunomodulatory Activity Over DCs
The inventors used for the in vitro study both C4BP(+) and C4BP(β−) isoforms. C4BP(3+) isoforms refer to the major C4BP α7β1 plus the minor C4BP α6β1 isoforms (both in complex with ProS) purified from pooled human plasma, as previously described (Dahlbäck B. 1983. Biochem J., 209:847-56).

[3] = test system: lupus-prone NZBWF1 mice; test: Renal function (24 h proteinuria) in spontaneous SLE mouse model NZBWF1; assay type: in vivo; settings: for delay in the onset of proteinuria: vs PBS-treated control
Description: Mice, Study Design and Follow Up
NZB/NZW F1 or NZBWF1/J (Charles-River), NZB/NZW F1 (Jackson, code 100008) are a hybrid cross between NZB/B1NJ (Jackson, code 000684) Female x NZW/LacJ (Jackson, code 001058) Male. NZBWF1/J mice develop an autoimmune disease resembling human systemic lupus erythematosus. The inventors used 58 females (30-35 g/each) aged 15 weeks for the study (4-5 animals per cage). The animals were maintained under standard laboratory conditions, at 20-24° C. and 40-70% relative humidity, with 12-hour fluorescent light/12-hour dark cycle. They were feed standard diet and tap water ad libitum. […]
Dose Selection and Administration.
The selection of the C4BP(β−) dose for in vivo administration was based in previous studies employing complement-related proteins in immune-inflammatory pathologies. Blom et al. (Blom et al. 2009. Ann. Rheum. Dis., 68:136-42) used the C4BP isoform lacking β chain in experimental collagen-induced arthritis (CIA) and collagen antibody-induced arthritis (CAIA) mice to investigate the influence of complement activity in the treatment of rheumatoid arthritis. These authors administered intraperitoneally C4BP (2 mg/mouse) using a multiple dose-regimen once every two days in preventive and therapeutic experiments. Thus, in the current study, C4BP(β−) was administered both intraperitoneally (IP) and subcutaneously (SC) into NZBWF1 mice for three months (between six and nine months of age).
Alperovich et al (Alperovich et al. 2007. Lupus, 16:18-24) administered cyclophosphamide (CYP) to NZBWF1 mice at 50 mg/kg IP every 10 days.
(§1) Both IP and SC administrations for C4BP(β−), CYP and PBS (150 μl/each) were performed with a 25-gauge needle during 30 s, after rinsing the skin with 70% ethanol.
(§2) The detailed administration schedule was as follows (Table 5):
Body weight was determined twice monthly from the beginning to the end of follow-up. Mice were placed in metabolic cages to collect 24 h urine specimens before the onset of treatment and monthly thereafter. Blood was obtained from the tail vein at monthly intervals.
Renal Function Analysis: Proteinuria
24 h urinary protein was determined by pyrogallol red (Olympum Autoanalyzer AU400, Hamburg, Germany) in the Veterinary Clinical Biochemistry Laboratory from Universitat Autonoma de Barcelona.
(§3) One-way analysis of variance (ANOVA) with post hoc tests was performed to compare proteinuria throughout the follow up. Survival data were analyzed using Kaplan-Meier curves and long-rank test. P value<0.05 was considered significant. Data are expressed as mean±SEM.

[4] = test system: lupus-prone NZBWF1 mice; test: Kaplan-Meier survival in spontaneous SLE mouse model NZBWF1; assay type: in vivo; settings: for mice still alive at the end of the study: 330 days
Description: NZBWF1/J mice develop an autoimmune disease resembling human systemic lupus erythematosus. […] The animals were maintained under standard laboratory conditions, at 20-24° C. and 40-70% relative humidity, with 12-hour fluorescent light/12-hour dark cycle. They were feed standard diet and tap water ad libitum.
as §1, §2, §3

[5] = IP, 5 μg/mouse once every two weeks
[6] = IP, 50 μg/mouse once every two weeks
[7] = IP, 500 μg/mouse once every two weeks

B1: C4BP: human C4b-binding protein as used by Blom et al. 2009, intraperitoneally in mice (protein, UniProt P04003 49-597; P20851 18-252, looked up)
C4b-binding protein alpha …: NCGPPPTLSFAAPMDITLTETRFKTGTTLKYTCLPGYVRSHSTQTLTCNSDGEWVYNTFCIYKRCRHPGELRNGQVEIKTDLSFGSQIEFSCSEGFFLIGSTTSRCEVQDRGVGWSHPLPQCEIVKCKPPPDIRNGRHSGEENFYAYGFSVTYSCDPRFSLLGHASISCTVENETIGVWRPSPPTCEKITCRKPDVSHGEMVSGFGPIYNYKDTIVFKCQKGFVLRGSSVIHCDADSKWNPSPPACEPNSCINLPDIPHASWETYPRPTKEDVYVVGTVLRYRCHPGYKPTTDEPTTVICQKNLRWTPYQGCEALCCPEPKLNNGEITQHRKSRPANHCVYFYGDEISFSCHETSRFSAICQGDGTWSPRTPSCGDICNFPPKIAHGHYKQSSSYSFFKEEIIYECDKGYILVGQAKLSCSYSHWSAPAPQCKALCRKPELVNGRLSVDKDQYVEPENVTIQCDSGYGVVGPQSITCSGNRTWYPEVPKCEWETPEGCEQVLTGKRLMQCLPNPEDVKMALEVYKLSLEIEQLELQRDSARQSTLDKEL
C4b-binding protein beta chain: SDAEHCPELPPVDNSIFVAKEVEGQILGTYVCIKGYHLVGKKTLFCNASKEWDNTTTECRLGHCPDPVLVNGEFSSSGPVNVSDKITFMCNDHYILKGSNRSQCLEDHTWAPPFPICKSRDCDPPGNPVHGYFEGNNFTLGSTISYYCEDRYYLVGVQEQQCVDGEWSSALPVCKLIQEAPKPECEKALLAFQESKNLCEAMENFMQQLKESGMTMEELKYSLELKKAELKAKLL
initial amount remaining in the circulation ([1]; ip): 3%
clearance from the circulation [1]: cleared fast

B2: rC4BP(β−): recombinant C4BP isoform lacking the β-chain, transiently produced in HEK293 cells (Expi293 cells) (protein, UniProt P04003 49-597, looked up)
C4b-binding protein alpha …: B1 C4b-binding protein alpha …
modifications: alpha-chain-only isoform, recombinant
semi-mature, anti-inflammatory phenotype conferred to LPS-matured MoDCs (immunomodulatory activity) ([2]; MoDCs pre-incubated with 5 μg/ml protein, LPS challenge): able to confer an analogous semi-mature, anti-inflammatory phenotype
CD83 and CD86 surface marker expression ([2]; human MoDCs, 5 μg/ml C4BP isoform, LPS 5 μg/ml): restrain similarly CD83 and CD86 surface marker expression
proteinuria by week 37 [3, 5]: severe proteinuria indistinguishable from the PBS-treated control group
delay in the onset of proteinuria [3, 5]: 2 week
proteinuria by week 37 [3, 6]: severe proteinuria indistinguishable from the PBS-treated control group
delay in the onset of proteinuria [3, 6]: 2 week
proteinuria level at the end of the study (week 37) [3, 7]: ~300 mg protein/kg
delay in the onset of proteinuria [3, 7]: 6 weeks
proteinuria by week 37 (end of the study) ([3]; SC, 50 μg once every two weeks): < 200 mg/kg
onset / development of proteinuria ([3]; mouse, in vivo, sc): significantly delayed; also recorded: strongest attenuation of proteinuria development
efficacy, SC 50 μg/mouse vs IP 500 μg/mouse ([3]; same regimen, SLE mouse model): more effective than the intraperitoneal administration of 500 μg/mouse
survival ([4]; IP, 5 μg once every two weeks, all mice died at end of study (330 days)): performed similarly to the control PBS-treated group
mice still alive at the end of the study ([4]; IP, 50 μg once every two weeks): 20-30%
mice still alive at the end of the study ([4]; IP, 500 μg once every two weeks): 20-30%
mice active at the end of the study ([4]; SC route, all treatment groups): maintained mice active at the end of the study
mice alive at 330 days ([4]; SC, 50 μg once every two weeks): more than 60%
survival respect to control PBS-treated mice ([4]; SC, 50 μg once every two weeks): appreciably delay their survival; also recorded: best survival rate
progress of the disease ([4]; SC, 50 μg, NZBWF1 mice): substantial slowing of the progress of the disease
statistical analysis of Kaplan-Meier survival curves vs control PBS-treated group ([4]; any of the rC4BP(β−)-treated groups, n=6): no statistically significant differences
survival, subcutaneous route compared with intraperitoneal route ([4]; doses of 5 μg and 50 μg, FIG. 6): higher
